Data taken from article PMC13157019 (eBioMedicine, 2026).

T1: rabbit Langerin ectodomain (recombinant) (rabbit)
T1 chain: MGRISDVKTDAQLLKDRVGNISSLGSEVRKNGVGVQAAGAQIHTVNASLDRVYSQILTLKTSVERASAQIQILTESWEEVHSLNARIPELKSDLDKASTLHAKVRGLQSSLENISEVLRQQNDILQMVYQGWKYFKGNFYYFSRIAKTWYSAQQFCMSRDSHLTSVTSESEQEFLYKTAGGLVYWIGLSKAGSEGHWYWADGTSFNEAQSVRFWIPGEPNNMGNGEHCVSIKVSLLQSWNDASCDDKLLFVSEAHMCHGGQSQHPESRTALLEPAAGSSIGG

B1: LC^3.Env^3 (fibritin-stabilised HIV-1 Env gp140z trimer fused to three scFv of the anti-Langerin 4C7 mAb) (scFv, V domains shown)
VH: QVQLQQSGAELVRPGASVTLSCKASGYTFIDHDMHWVQQTPVYGLEWIGAIDPETGDTGYNQKFKGKAILTADKSSRTAYMELRSLTSEDSAVYYCTIPFYYSNYSPFAYWGQGTLVTVSA
VL: QIVLSQSPAILSASPGEKVTMTCRASSSVSYMHWYQRKPGSSPKPWIYATSNLASGVPARFSGSGSGTSYSLTISRVEAEDAATYYCQQWSSNPLTFGAGTKLELK
B2: LC.Env (anti-Langerin 4C7 mAb fused to HIV-1 envelope gp140z from clade C 96ZM651) (antibody, V domains shown)
VH: QVQLQQSGAELVRPGASVTLSCKASGYTFIDHDMHWVQQTPVYGLEWIGAIDPETGDTGYNQKFKGKAILTADKSSRTAYMELRSLTSEDSAVYYCTIPFYYSNYSPFAYWGQGTLVTVSA
VL: QIVLSQSPAILSASPGEKVTMTCRASSSVSYMHWYQRKPGSSPKPWIYATSNLASGVPARFSGSGSGTSYSLTISRVEAEDAATYYCQQWSSNPLTFGAGTKLELK

How the values were obtained:
Experiment in all cases: SPR
[1] = target: T1, rabbit Langerin ectodomain (recombinant)
[2] = target: human Langerin ectodomain (recombinant) (Homo sapiens, UniProt Q9UJ71)
[3] = target: mouse Langerin ectodomain (recombinant) (Mus musculus, UniProt Q8VBX4)
mouse Langerin ectodomain (recombinant), sequence (Q8VBX4 63-331): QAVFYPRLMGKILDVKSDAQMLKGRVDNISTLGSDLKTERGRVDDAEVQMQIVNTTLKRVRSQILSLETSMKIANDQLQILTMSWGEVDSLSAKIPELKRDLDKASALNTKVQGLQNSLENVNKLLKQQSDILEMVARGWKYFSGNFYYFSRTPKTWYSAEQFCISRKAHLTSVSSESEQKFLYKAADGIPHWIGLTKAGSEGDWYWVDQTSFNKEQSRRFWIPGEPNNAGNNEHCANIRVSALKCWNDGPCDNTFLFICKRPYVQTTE

human Langerin ectodomain (recombinant), sequence (Q9UJ71 65-328): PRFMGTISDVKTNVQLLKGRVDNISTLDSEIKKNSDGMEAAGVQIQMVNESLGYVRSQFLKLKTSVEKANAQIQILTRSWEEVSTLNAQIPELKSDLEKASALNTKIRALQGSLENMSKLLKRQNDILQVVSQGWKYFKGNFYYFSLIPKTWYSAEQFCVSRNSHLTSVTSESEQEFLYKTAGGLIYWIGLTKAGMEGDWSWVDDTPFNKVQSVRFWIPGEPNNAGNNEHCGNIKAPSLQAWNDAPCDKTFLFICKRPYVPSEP

| Binder | Kd [1] [nM] | Kd [2] [nM] | Kd [3] [nM] |
| --- | --- | --- | --- |
| B1 | ~3.5 | ~3.5 | ~3.5 |
| B2 | ~0.7 | ~0.7 | ~0.7 |
